In PMC10397247:

Assays:
Experiment in all cases: two-hybrid library CCmax;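 further: natural log of median RNA to DNA barcode read ratio; higher means stronger binding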
[1] = target: T1, P2-AA-1HGe-A; conditions: mean of both orientations
T1 chain: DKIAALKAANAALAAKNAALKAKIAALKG

[2] = target: T2, P2-AA-1HGe-D; conditions: mean of both orientations
T2 chain: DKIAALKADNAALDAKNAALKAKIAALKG

[3] = target: T3, P2-AA-1HGe-H; conditions: mean of both orientations
T3 chain: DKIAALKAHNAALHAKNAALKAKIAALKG

[4] = target: T4, P2-AA-1HGe-M; conditions: mean of both orientations
T4 chain: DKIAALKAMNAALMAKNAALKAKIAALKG

[5] = target: T5, P2-AA-1HGe-Q; conditions: mean of both orientations
T5 chain: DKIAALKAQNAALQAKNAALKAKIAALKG

[6] = target: T6, P2-AA-1HGe-T; conditions: mean of both orientations
T6 chain: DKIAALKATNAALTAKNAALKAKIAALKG

[7] = target: T7, P2-AA; conditions: mean of both orientations
T7 chain: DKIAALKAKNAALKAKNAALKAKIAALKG

[8] = target: T8, 4H2143-AA
T8 chain: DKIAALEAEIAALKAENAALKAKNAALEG

[9] = target: T9, 4H2148-AA; conditions: mean of both orientations
T9 chain: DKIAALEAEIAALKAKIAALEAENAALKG

[10] = target: T10, 4H2290-AA; conditions: mean of both orientations
T10 chain: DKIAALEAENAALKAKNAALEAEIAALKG

[11] = target: T11, 4H2447-AA; conditions: mean of both orientations
T11 chain: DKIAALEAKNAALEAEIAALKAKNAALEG

[12] = target: T12, 4H2458-AA; conditions: mean of both orientations
T12 chain: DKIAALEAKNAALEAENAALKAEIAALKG

[13] = target: T13, 4H3330-AA; conditions: mean of both orientations
T13 chain: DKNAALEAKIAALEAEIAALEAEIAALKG

[14] = target: T14, 4H716-AA; conditions: mean of both orientations
T14 chain: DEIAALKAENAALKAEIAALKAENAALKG

[15] = target: T15, 4H733-AA; conditions: mean of both orientations
T15 chain: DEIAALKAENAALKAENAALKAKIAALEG

[16] = target: T16, 4H807-AA; conditions: mean of both orientations
T16 chain: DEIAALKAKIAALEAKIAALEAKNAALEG

[17] = target: T17, APC1015-AA; conditions: mean of both orientations
T17 chain: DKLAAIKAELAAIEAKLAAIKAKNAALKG

[18] = target: T18, APC1434-AA; conditions: mean of both orientations
T18 chain: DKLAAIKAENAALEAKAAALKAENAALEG

[19] = target: T19, APC2237-AA; conditions: mean of both orientations
T19 chain: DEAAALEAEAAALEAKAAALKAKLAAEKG

[20] = target: T20, APC232-AA; conditions: mean of both orientations
T20 chain: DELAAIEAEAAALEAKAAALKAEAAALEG

[21] = target: T21, APC2405-AA; conditions: mean of both orientations
T21 chain: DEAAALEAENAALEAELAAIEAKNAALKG

[22] = target: T22, APC3645-AA; conditions: mean of both orientations
T22 chain: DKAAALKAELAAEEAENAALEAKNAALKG

[23] = target: T23, APC4011-AA; conditions: mean of both orientations
T23 chain: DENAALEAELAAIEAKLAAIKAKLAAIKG

[24] = target: T24, APC4264-AA; conditions: mean of both orientations
T24 chain: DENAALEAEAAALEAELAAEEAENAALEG

[25] = target: T25, APC4436-AA; conditions: mean of both orientations
T25 chain: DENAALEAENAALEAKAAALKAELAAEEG

[26] = target: T26, APC5383-AA; conditions: mean of both orientations
T26 chain: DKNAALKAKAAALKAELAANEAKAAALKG

[27] = target: T27, APC6108-AA; conditions: mean of both orientations
T27 chain: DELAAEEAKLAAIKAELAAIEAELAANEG

[28] = target: T28, APC7099-AA; conditions: mean of both orientations
T28 chain: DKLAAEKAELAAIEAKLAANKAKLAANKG

[29] = target: T29, APC8191-AA; conditions: mean of both orientations
T29 chain: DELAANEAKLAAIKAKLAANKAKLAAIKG

[30] = target: T30, APC8910-AA; conditions: mean of both orientations
T30 chain: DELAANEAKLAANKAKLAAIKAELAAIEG

[31] = target: T31, APC9096-AA; conditions: mean of both orientations
T31 chain: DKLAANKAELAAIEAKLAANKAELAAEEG

[32] = target: T32, APC9319-AA; conditions: mean of both orientations
T32 chain: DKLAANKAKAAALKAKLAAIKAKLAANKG

DEIAALEAHNAALHAENAALEAEIAALEG [P1-AA-1HGe-H]
interaction score [1]: 2.34 | interaction score [2]: 1.6 | interaction score [3]: 1.57 | interaction score [4]: 1.8 | interaction score [5]: 2.16 | interaction score [6]: 1.71 | interaction score [7]: 1.8

DKIAALEAEIAALKAENAALKAKNAALEG [4H2143-AA]
interaction score [8]: 2.12 | interaction score [9]: -1.43 | interaction score [10]: -1.42 | interaction score [11]: -1.64 | interaction score [12]: -1.32 | interaction score [13]: -0.836 | interaction score [14]: -1.59 | interaction score [15]: -1.41 | interaction score [16]: -1.57 | interaction score [17]: -1.78 | interaction score [18]: -1.23 | interaction score [19]: -1.56 | interaction score [20]: -2.06 | interaction score [21]: -1.48 | interaction score [22]: -1.25 | interaction score [23]: -0.0916 | interaction score [24]: -1.81 | interaction score [25]: -1.85 | interaction score [26]: -1.98 | interaction score [27]: -1.49 | interaction score [28]: -1.51 | interaction score [29]: -1.3 | interaction score [30]: -1.84 | interaction score [31]: -1.82 | interaction score [32]: -1.6
